Molecular target: actin filaments (F-actin) from rabbit skeletal muscle (rabbit, UniProt P68135 1-377)
Experiment: co-sedimentation

B1: LEV-11A(E234K), recombinant (natural protein)
chain: MASDAIKKKMQAMKIEKDNALDRADAAEEKVRQITEKLERVEEELRDTQKKMTQTGDDLDKAQEDLSAATSKLEEKEKTVQEAEAEVASLNRRMTLLEEELERAEERLKIATEKLEEATHNVDESERVRKVMENRSLQDEERANTVEAQLKEAQLLAEEADRKYDEVARKLAMVEADLERAEERAEAGENKIVELEEELRVVGNNLKSLEVSEEKALQREDSYEEQIRTVSSRLKKAETRAEFAERSVQKLQKEVDRLEDELVHEKERYKTISEELDSTFQELSGY
For B1, the “fold decrease in affinity against wild-type LEV-11A” value was ~3 fold.
